Reference: the supplement of paper PMC10126150
± gives the standard deviation of the averaged measurements.

Tested on: ATP
Test: switch fluorescence ratio, 500 uM ATP over buffer (Cy3 cluster intensity, sum of 5 cycles each) (fold (ratio)); higher = stronger signal-on switching upon ATP binding; sequences stand for … in TCGTCGGCAGCGTCAGATGTGTATAAGAGACAGTTTTTTTTTTTTTTTTTTTTTTTTT…TC
Conditions: aptamer strand: ATP DNA aptamer (quencher-CACCTGGGGGAGTATTGCGGAGGAAGG + anchor), 100 nM annealed; ATP concentration: 500 uM
In short: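 Clusters carrying Cy3-labelled switching strands on a modified Illumina MiSeq flow-cell were annealed to 100 nM quencher-labelled ATP aptamer and imaged in selection buffer. They were imaged again after 15 min with 500 uM ATP at 22 °C, over five buffer/ATP cycles with NaOH stripping and re-annealing in between. For each cluster, the fluorescence ratio is the summed Cy3 intensity of the target cycles divided by that of the buffer cycles, averaged per switch-domain sequence. Clusters outside 100-1000 RFU were left out.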
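Further: ATP exposure 15 min at 22 °C before imaging.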

For TATGTGGGGA, the switch fluorescence ratio was 1.02 ± 0.027.
TATGTGGGGG showed a switch fluorescence ratio of 1 ± 0.016.
In the case of TATGTGTTTC, the switch fluorescence ratio is reported as 1.18 ± 0.25.
Work on TATGTTACCT yielded a switch fluorescence ratio of 1.22 ± 0.05.
For TATGTTGAGG, the switch fluorescence ratio was 1 ± 0.035.
With TATGTTTATC the switch fluorescence ratio was 0.975 ± 0.055.
For TATTAAAATT, the switch fluorescence ratio was 1.008 ± 0.0077.
TATTAAACGA showed a switch fluorescence ratio of 1.019 ± 0.0063.
TATTAAAGAC showed a switch fluorescence ratio of 1.04 ± 0.1.
TATTAAATTC gave a switch fluorescence ratio of 0.984 ± 0.039.
With TATTAATAGT the switch fluorescence ratio was 1.01 ± 0.024.
TATTACAAGT showed a switch fluorescence ratio of 1.01 ± 0.015.
In the case of TATTACCGTT, the switch fluorescence ratio is reported as 1.006 ± 0.0076.
TATTACTCAG gave a switch fluorescence ratio of 1.03 ± 0.025.
In the case of TATTAGGGAC, the switch fluorescence ratio is reported as 0.994 ± 0.032.
TATTAGGGCA showed a switch fluorescence ratio of 0.9717 ± 0.0097.
For TATTAGGGTC, the switch fluorescence ratio was 1.02 ± 0.02.
In the case of TATTAGGTGT, the switch fluorescence ratio is reported as 1.04 ± 0.04.
TATTAGGTTT showed a switch fluorescence ratio of 0.991 ± 0.018.
TATTAGTATG gave a switch fluorescence ratio of 0.991 ± 0.047.
With TATTATACCT the switch fluorescence ratio was 1.29 ± 0.053.
TATTATTTGG was tested, and the switch fluorescence ratio was 1 ± 0.034.
TATTCAATGG was tested, and the switch fluorescence ratio was 1.02 ± 0.074.
With TATTCAGAAA the switch fluorescence ratio was 1.02 ± 0.054.
For TATTCAGAGG, the switch fluorescence ratio was 0.974 ± 0.02.
TATTCAGGCA showed a switch fluorescence ratio of 1.01 ± 0.041.
For TATTCGCTTT, the switch fluorescence ratio was 1.33 ± 0.48.
Sequence TATTCTGGAT has a switch fluorescence ratio of 0.993 ± 0.026.
With TATTCTGGGA the switch fluorescence ratio was 0.9918 ± 0.0078.
For TATTGAAGGT, the switch fluorescence ratio was 1.026 ± 0.0075.
For TATTGAGACT, the switch fluorescence ratio was 0.989 ± 0.004.
TATTGAGAGC gave a switch fluorescence ratio of 1.01 ± 0.064.
For TATTGCTACT, the switch fluorescence ratio was 1.0114 ± 6.4e-05.
With TATTGGAACG the switch fluorescence ratio was 0.99979 ± 0.0003.
For TATTGGCAGA, the switch fluorescence ratio was 1.008 ± 0.01.
Work on TATTGGCGCT yielded a switch fluorescence ratio of 0.984 ± 0.018.
TATTGGGCGG gave a switch fluorescence ratio of 1.01 ± 0.045.
TATTGGGCTA showed a switch fluorescence ratio of 0.993 ± 0.044.
In the case of TATTGGGTTT, the switch fluorescence ratio is reported as 0.996 ± 0.022.
With TATTGGTAAA the switch fluorescence ratio was 0.997 ± 0.036.
TATTGGTAGC was tested, and the switch fluorescence ratio was 0.984 ± 0.025.
For TATTGGTATG, the switch fluorescence ratio was 1 ± 0.017.
Sequence TATTGGTCGG has a switch fluorescence ratio of 0.993 ± 0.036.
TATTGGTTTT was tested, and the switch fluorescence ratio was 1 ± 0.011.
With TATTGTGAGT the switch fluorescence ratio was 0.996 ± 0.057.
With TATTGTGGGG the switch fluorescence ratio was 1 ± 0.044.
TATTGTGTTC was tested, and the switch fluorescence ratio was 0.9965 ± 0.0035.
Sequence TATTGTTAGG has a switch fluorescence ratio of 1.01 ± 0.027.
TATTTAAAGG was tested, and the switch fluorescence ratio was 0.986 ± 0.02.
TATTTAACAC gave a switch fluorescence ratio of 1.1 ± 0.12.
With TATTTAATAG the switch fluorescence ratio was 1.004 ± 0.0028.
In the case of TATTTAGGGC, the switch fluorescence ratio is reported as 1.04 ± 0.052.
Work on TATTTATAAG yielded a switch fluorescence ratio of 0.96 ± 0.015.
Work on TATTTATGCG yielded a switch fluorescence ratio of 1.021 ± 0.0091.
In the case of TATTTATTGG, the switch fluorescence ratio is reported as 0.999 ± 0.012.
Work on TATTTATTTT yielded a switch fluorescence ratio of 1.01 ± 0.03.
TATTTCATGT gave a switch fluorescence ratio of 1.02 ± 0.044.
TATTTCATTC gave a switch fluorescence ratio of 1.03 ± 0.041.
TATTTCGGGT was tested, and the switch fluorescence ratio was 1.01 ± 0.068.
Sequence TATTTCTGCT has a switch fluorescence ratio of 1.04 ± 0.033.
For TATTTCTGTA, the switch fluorescence ratio was 1.03 ± 0.019.
TATTTCTTTG gave a switch fluorescence ratio of 0.979 ± 0.055.
TATTTGAAGT gave a switch fluorescence ratio of 0.9885 ± 0.0028.
In the case of TATTTGAGTC, the switch fluorescence ratio is reported as 0.972 ± 0.021.
TATTTGCTGT was tested, and the switch fluorescence ratio was 1.001 ± 0.001.
TATTTGGGAT gave a switch fluorescence ratio of 1 ± 0.002.
In the case of TATTTGGGGT, the switch fluorescence ratio is reported as 0.999 ± 0.027.
Sequence TATTTGGTTA has a switch fluorescence ratio of 1.024 ± 0.006.
In the case of TATTTTAGTT, the switch fluorescence ratio is reported as 1.02 ± 0.023.
For TATTTTATGG, the switch fluorescence ratio was 0.998 ± 0.025.
TATTTTATTT showed a switch fluorescence ratio of 1 ± 0.018.
In the case of TATTTTCACT, the switch fluorescence ratio is reported as 1.05 ± 0.11.
Work on TATTTTCAGA yielded a switch fluorescence ratio of 1.04 ± 0.014.
TATTTTGCGG was tested, and the switch fluorescence ratio was 0.987 ± 0.035.
For TATTTTGTGC, the switch fluorescence ratio was 1.02 ± 0.012.
In the case of TATTTTTAGC, the switch fluorescence ratio is reported as 1 ± 0.03.
TATTTTTCAG showed a switch fluorescence ratio of 1.03 ± 0.015.
TATTTTTTA was tested, and the switch fluorescence ratio was 1.019 ± 0.0089.
With TCAAAAAATG the switch fluorescence ratio was 1.01 ± 0.042.
In the case of TCAAAATTAT, the switch fluorescence ratio is reported as 1.02 ± 0.043.
With TCAAAATTGG the switch fluorescence ratio was 1.004 ± 0.0082.
Work on TCAAACGCTT yielded a switch fluorescence ratio of 1.12 ± 0.15.
In the case of TCAAAGCGTT, the switch fluorescence ratio is reported as 0.986 ± 0.031.
With TCAAAGTCGA the switch fluorescence ratio was 0.976 ± 0.045.
TCAAATAATC was tested, and the switch fluorescence ratio was 1.01 ± 0.03.
TCAAATCCTG gave a switch fluorescence ratio of 1.05 ± 0.047.
Work on TCAAATGAAT yielded a switch fluorescence ratio of 0.994 ± 0.05.
Sequence TCAAATGTGC has a switch fluorescence ratio of 1.02 ± 0.033.
Work on TCAAATTTTT yielded a switch fluorescence ratio of 0.998 ± 0.045.
For TCAACGAAGA, the switch fluorescence ratio was 1.01 ± 0.018.
With TCAACTTTTG the switch fluorescence ratio was 0.9856 ± 0.0022.
In the case of TCAAGAGTTC, the switch fluorescence ratio is reported as 1.01 ± 0.06.
For TCAAGGCGAT, the switch fluorescence ratio was 1.09 ± 0.042.
For TCAAGGGGAG, the switch fluorescence ratio was 1.06 ± 0.067.
In the case of TCAAGGTATT, the switch fluorescence ratio is reported as 1 ± 0.034.
TCAAGGTGGG showed a switch fluorescence ratio of 0.998 ± 0.021.
TCAAGTGCTT was tested, and the switch fluorescence ratio was 0.9688 ± 0.0071.
With TCAAGTTAGT the switch fluorescence ratio was 0.985 ± 0.026.
For TCAAGTTCTT, the switch fluorescence ratio was 1.03 ± 0.031.
For TCAAGTTGGC, the switch fluorescence ratio was 0.998 ± 0.09.
Sequence TCAATAAAGT has a switch fluorescence ratio of 0.961 ± 0.014.
In the case of TCAATAATGA, the switch fluorescence ratio is reported as 1.02 ± 0.027.
Work on TCAATAGCCG yielded a switch fluorescence ratio of 1.12 ± 0.14.
Sequence TCAATGATAT has a switch fluorescence ratio of 1.02 ± 0.019.
For TCAATGGGCT, the switch fluorescence ratio was 0.9899 ± 0.0092.
In the case of TCAATGTGGC, the switch fluorescence ratio is reported as 1.04 ± 0.036.
TCAATGTGTC was tested, and the switch fluorescence ratio was 1.03 ± 0.12.
In the case of TCAATGTTGG, the switch fluorescence ratio is reported as 0.988 ± 0.025.
For TCAATTCGGC, the switch fluorescence ratio was 0.991 ± 0.025.
TCAATTTCGG showed a switch fluorescence ratio of 0.99882 ± 0.00079.
With TCAATTTTTA the switch fluorescence ratio was 1.02 ± 0.02.
TCACAATTTT gave a switch fluorescence ratio of 1.08 ± 0.097.
TCACAGGATA was tested, and the switch fluorescence ratio was 1.021 ± 0.0056.
TCACATGTCG showed a switch fluorescence ratio of 1.02 ± 0.053.
With TCACCGACTA the switch fluorescence ratio was 1.1952 ± 0.00033.
In the case of TCACCGATTC, the switch fluorescence ratio is reported as 1.11 ± 0.024.
With TCACCGTTCT the switch fluorescence ratio was 1.03 ± 0.032.
In the case of TCACGATTTA, the switch fluorescence ratio is reported as 0.99 ± 0.057.
TCACGGGGCT was tested, and the switch fluorescence ratio was 1.01 ± 0.068.
With TCACTATAGG the switch fluorescence ratio was 1.02 ± 0.036.
Work on TCACTCCTTT yielded a switch fluorescence ratio of 1.01 ± 0.019.
TCACTGGGTC gave a switch fluorescence ratio of 1.05 ± 0.023.
TCAGAAGGGG gave a switch fluorescence ratio of 0.995 ± 0.0085.
Sequence TCAGAAGTAA has a switch fluorescence ratio of 1.317 ± 0.0066.
In the case of TCAGAATTGG, the switch fluorescence ratio is reported as 1.01 ± 0.028.
TCAGACACGG gave a switch fluorescence ratio of 1.04 ± 0.039.
For TCAGAGGAG, the switch fluorescence ratio was 1.01 ± 0.025.
Sequence TCAGAGGGAA has a switch fluorescence ratio of 1.07 ± 0.1.
TCAGAGGGGC showed a switch fluorescence ratio of 0.9913 ± 0.0095.
With TCAGATAGCG the switch fluorescence ratio was 0.98 ± 0.043.
TCAGCCAGC showed a switch fluorescence ratio of 1.06 ± 0.012.
TCAGCGCTTT showed a switch fluorescence ratio of 0.977 ± 0.032.
For TCAGCTGGGA, the switch fluorescence ratio was 1 ± 0.026.
With TCAGGAATGG the switch fluorescence ratio was 1.055 ± 0.0069.
TCAGGACGGG gave a switch fluorescence ratio of 0.992 ± 0.02.
For TCAGGGAGGT, the switch fluorescence ratio was 0.989 ± 0.051.
In the case of TCAGGGGCGT, the switch fluorescence ratio is reported as 1.0041 ± 0.00072.
TCAGGGGTGT showed a switch fluorescence ratio of 1.08 ± 0.024.
For TCAGGTAGCG, the switch fluorescence ratio was 1.004 ± 0.0061.
TCAGGTGAAT gave a switch fluorescence ratio of 1.32 ± 0.065.
TCAGGTGGGG gave a switch fluorescence ratio of 1.07 ± 0.046.
Sequence TCAGGTTAAG has a switch fluorescence ratio of 0.9954 ± 0.0061.
In the case of TCAGGTTTCC, the switch fluorescence ratio is reported as 1.0249 ± 0.00069.
With TCAGTACGCA the switch fluorescence ratio was 1.57 ± 0.095.
For TCAGTAGAGA, the switch fluorescence ratio was 0.995 ± 0.018.
Work on TCAGTAGCGG yielded a switch fluorescence ratio of 1.07 ± 0.1.
TCAGTAGGGA was tested, and the switch fluorescence ratio was 2.94 ± 2.8.
In the case of TCAGTCATTT, the switch fluorescence ratio is reported as 1.003 ± 0.0066.
TCAGTGCGGG showed a switch fluorescence ratio of 0.98 ± 0.047.
In the case of TCAGTGGACG, the switch fluorescence ratio is reported as 0.996 ± 0.072.
TCAGTGTGCT was tested, and the switch fluorescence ratio was 0.98 ± 0.014.
For TCAGTGTGTT, the switch fluorescence ratio was 1.02 ± 0.038.
In the case of TCAGTTAAGG, the switch fluorescence ratio is reported as 0.9866 ± 0.0039.
